In US20260201038A1 (CELLABMED, published 2026):

Assays:
B7-2 = biological target: T1, B7-2 (UniProt P42081 24-247, limits assumed); assay: indirect ELISA, B7-2 coated at 1 ug/mL, absorbance at 450 nm
T1 sequence (looked up): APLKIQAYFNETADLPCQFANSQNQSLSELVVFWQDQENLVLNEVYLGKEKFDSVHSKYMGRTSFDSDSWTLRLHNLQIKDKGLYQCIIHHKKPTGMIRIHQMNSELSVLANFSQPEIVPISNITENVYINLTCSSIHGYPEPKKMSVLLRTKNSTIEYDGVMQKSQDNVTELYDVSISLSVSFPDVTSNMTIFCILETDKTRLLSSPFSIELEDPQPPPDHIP
Procedure: [The procedure below names another target; the source lists this target under the same test.] (§1) The binding ability of 2D IgG prepared in Example 2 for recombinant B7-H3 protein was investigated by indirect ELISA. For indirect ELISA, recombinant human 4lg B7-H3, recombinant human 2lg B7-H3 and recombinant mouse B7-H3 were diluted respectively to 1 μg/mL in 50 μL of PBS and adsorbed overnight onto a 96-well immunoplate (Corning, USA) by storing at 4° C. After reaction with a buffer solution containing 3% bovine serum albumin at room temperature for 1 hour, followed by washing 3 times with a buffer solution containing 0.5% Tween 20, each well was treated with 50 μL of the antibodies diluted serially (0.0001, 0.0003, 0.001, 0.003, 0.01, 0.03, 0.1, 0.3, 1, 3 and 10 nM). For antigen-antibody binding, the mixture was reacted at room temperature for 2 hours, and then washed 3 times with a buffer solution containing 0.5% Tween 20. After treating each well with 50 μL of anti-human immunoglobulin Fc-HRP antibodies (Jackson Immunoresearch, USA) diluted to 1:3,000, reaction was conducted at room temperature for 1 hour. […] As a result of measuring absorbance at 450 nm using a spectrophotometer (Biotek, USA), it was confirmed that 2D IgG binds to B7-H3, and the binding ability was in the order of 4lg B7-H3, 2lg B7-H3 and mouse B7-H3 (FIG. 2a). […]

B7-H1 = B7-H1 (UniProt Q9NZQ7 19-239); assay: indirect ELISA, B7-H1 coated at 1 ug/mL, absorbance at 450 nm
Chain of B7-H1 (Q9NZQ7 19-239 limits assumed): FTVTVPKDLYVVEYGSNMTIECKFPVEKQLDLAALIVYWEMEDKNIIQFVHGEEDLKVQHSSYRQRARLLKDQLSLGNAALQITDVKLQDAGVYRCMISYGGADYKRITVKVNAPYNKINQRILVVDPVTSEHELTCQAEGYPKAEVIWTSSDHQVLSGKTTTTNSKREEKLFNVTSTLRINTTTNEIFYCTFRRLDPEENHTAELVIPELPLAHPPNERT
Procedure: [The procedure below names another target; the source lists this target under the same test.] as §1

[1] = biological target: B7-H3 on human cancer cells (human) (UniProt Q5ZPR3); assay: flow cytometry on MIA-PaCa2 pancreatic cancer cells; control (secondary antibody only) < 25%
[2] = biological target: B7-H3 on human cancer cells (human) (UniProt Q5ZPR3); assay: cell-based or functional assay
[3] = biological target: B7-H3 on human cancer cells (human) (UniProt Q5ZPR3); assay: flow cytometry on HT29 colorectal cancer cells; control (secondary antibody only) < 15%
LTGALEVQVPEDPVV = biological target: T2, LTGALEVQVPEDPVV; assay: peptide microarray, 15-mers of human 4Ig B7-H3; panel Ig-like-V type 1
T2 construct: 15-mer of human 4Ig B7-H3 on the peptide microarray, panel Ig-like-V type 1
T2 peptide: LTGALEVQVPEDPVV
Procedure: (§2) It was confirmed that G2D IgG has linear epitopes since G2D was verified to recognize 4lg B7-H3 through western blot (FIG. 10a). Therefore, linear epitope mapping was conducted by Pepperprint GmbH (Germany). After preparing a peptide microarray from the 15 4lg B7-H3 amino acids with 14-amino acid overlaps, the antibodies binding to peptides were identified using secondary antibodies (FIG. 10b). As a result, it was confirmed that G2D IgG binds to a peptide having a sequence of EVQVP (FIG. 10c). EVQVP is located in the Ig-like V-type1 and Ig-like V-type2 domains of 4lg B7-H3 (FIGS. 10d and 10e). When the epitopes of the control antibody enoblituzumab were identified by the same method, it was confirmed that the epitopes include the sequence of GYPEAE (FIG. 10b), and GYPEAE is located in the Ig-like C2-type1 and Ig-like C2-type2 domains of 4lg B7-H3 (FIGS. 10d and 10e). As a result, it was confirmed that G2D IgG and the control antibody enoblituzumab have different epitopes.

FCLTGALEVQVPEDP = biological target: T3, FCLTGALEVQVPEDP; assay: as above
T3 construct: 15-mer of human 4Ig B7-H3 on the peptide microarray, panel Ig-like-V type 1
T3 peptide: FCLTGALEVQVPEDP
Procedure: as §2

TGALEVQVPEDPVVA = biological target: T4, TGALEVQVPEDPVVA; assay: as above
T4 construct: 15-mer of human 4Ig B7-H3 on the peptide microarray, panel Ig-like-V type 1
T4 peptide: TGALEVQVPEDPVVA
Procedure: as §2

LEVQVPEDPVVALVG = biological target: T5, LEVQVPEDPVVALVG; assay: as above
T5 construct: 15-mer of human 4Ig B7-H3 on the peptide microarray, panel Ig-like-V type 1
T5 peptide: LEVQVPEDPVVALVG
Procedure: as §2

CLTGALEVQVPEDPV = biological target: T6, CLTGALEVQVPEDPV; assay: as above
T6 construct: 15-mer of human 4Ig B7-H3 on the peptide microarray, panel Ig-like-V type 1
T6 peptide: CLTGALEVQVPEDPV
Procedure: as §2

LWFCLTGALEVQVPE = biological target: T7, LWFCLTGALEVQVPE; assay: as above
T7 construct: 15-mer of human 4Ig B7-H3 on the peptide microarray, panel Ig-like-V type 1
T7 peptide: LWFCLTGALEVQVPE
Procedure: as §2

ALWFCLTGALEVQVP = biological target: T8, ALWFCLTGALEVQVP; assay: as above
T8 construct: 15-mer of human 4Ig B7-H3 on the peptide microarray, panel Ig-like-V type 1
T8 peptide: ALWFCLTGALEVQVP
Procedure: as §2

GALEVQVPEDPVVAL = biological target: T9, GALEVQVPEDPVVAL; assay: as above
T9 construct: 15-mer of human 4Ig B7-H3 on the peptide microarray, panel Ig-like-V type 1
T9 peptide: GALEVQVPEDPVVAL
Procedure: as §2

WFCLTGALEVQVPED = biological target: T10, WFCLTGALEVQVPED; assay: as above
T10 construct: 15-mer of human 4Ig B7-H3 on the peptide microarray, panel Ig-like-V type 1
T10 peptide: WFCLTGALEVQVPED
Procedure: as §2

[4] = biological target: B7-H3 on human cancer cells (human) (UniProt Q5ZPR3); assay: flow cytometry on NCI-H1975 lung cancer cells; control (secondary antibody only) < 5%

B1: G2D IgG (antibody, V domains shown)
VH: QVQLVESGGGLVQPGGSLRLSCSASGFDFSSYPMVWVRQAPGKGLEYVSSINSGGSWTGYGAAVKGRATISRDNSKNTLYLQMNSLRAEDTATYYCARAYGAATIDAWGQGTTVTVSS
VL: SYELTQPPSVSVSPGQTARITCSGGSIGYGWYQQKAPGQAPVTVIYYNDRRPSGIPERFSGSKSGTTNTLTISGVQAEDEADYYCGSADSSSTYTGIFGGGTKLTVL
notes: The back-substitutions (L46T, S66K, V71N in VL); also called humanized 2D; G2D antibody
B7-2
  binding result: no binding (tested: 10 nM)
B7-H1
  binding result: no binding (tested: 10 nM)
[1]
  % of cells in the positive gate: > 95%
[2]
  T cell-mediated A549 cell-killing effect (GFP fluorescence of A549 cells after 48 h co-culture with activated PBMCs; negative control group = 100): 69.3
  T cell-mediated cancer cell-killing effect as compared to the negative control group: 30%
[3]
  % of cells in the positive gate: > 95%
LTGALEVQVPEDPVV
  fluorescence intensity of the peptide spot: 154
FCLTGALEVQVPEDP
  fluorescence intensity of the peptide spot: 63
TGALEVQVPEDPVVA
  fluorescence intensity of the peptide spot: 21
LEVQVPEDPVVALVG
  fluorescence intensity of the peptide spot: 30.5
CLTGALEVQVPEDPV
  fluorescence intensity of the peptide spot: 138
LWFCLTGALEVQVPE
  fluorescence intensity of the peptide spot: 17.3
ALWFCLTGALEVQVP
  fluorescence intensity of the peptide spot: 122
GALEVQVPEDPVVAL
  fluorescence intensity of the peptide spot: 20
WFCLTGALEVQVPED
  fluorescence intensity of the peptide spot: 24.8
[4]
  % of cells in the positive gate: > 80%
